Experimental data taken from PMC9340783 (2022).

Target: hGITR ECD hFc (human, UniProt Q9Y5U5 26-161, Thr45Ala)
Test: SPR

Chain of hGITR ECD hFc (Q9Y5U5 26-161 T45A): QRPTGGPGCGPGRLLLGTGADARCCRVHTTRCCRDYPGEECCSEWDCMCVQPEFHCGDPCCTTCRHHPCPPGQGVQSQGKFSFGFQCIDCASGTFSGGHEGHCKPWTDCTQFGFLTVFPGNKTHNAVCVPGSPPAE

Row | Binder | koff
1 | hab019e2 (antibody, V domains shown) VH: QVQLVESGGGVVQPGRSLRLSCAASGFTFSSYGMHWVRQAPGKGLEWVAVIWYAGSRKFYADSVEGRFTISRDNSKNTLYLQMNSLRAEDTAVYYCARGGSLEGGFFYYGMDVWGQGTTVTVSS VL: not shown | 0.00023 s⁻¹
2 | hab019 (antibody, V domains shown) VH: QVQLVESGGGVVQPGRSLRLSCAASGFTFSSYGMHWVRQAPGKGLEWVAVIWYAGSRKFYADSVEGRFTISRDNSKNTLYLQMSSVRPEDTAVYYCARGGSLDGGFFYYGMDVWGQGTTVTVSS VL: not shown | 0.000205 s⁻¹
3 | hab064 (antibody, V domains shown) VH: QVQLVESGGGVVQPGRSLRLSCAASGFTFSSYGMHWVRQAPGKGLEWVAVIWYETSNKYYADSVKGRFTISRDNSKNTLYLQMNNLRAEDTAVYYCARYGGNSGWYWYFDLWGRGTLVTVSS VL: DIQLTQSPSFLSASVGDRVTITCRASQGISSFLAWYQQKPGTAPKLLIYAASTLQSGVPSRFSGSGSGTEFTLTISSLQPEDFATYCCQQLNSYPFTFGQGTKLEIK | 0.000315 s⁻¹

Further lines, results first:

Row | koff | Binder
4 | 0.000684 s⁻¹ | hab076 (antibody, V domains shown) VH: QVQLVESGGGVVQPGRSLRLSCAASGFTFSSYGMHWVRQAPGKGLEWVAVIWYETSNKYYADSVKGRFTISRDNSKNTLYLQMNSLRAEDTAVYYCARYGASSGWYWYFDLWGRGTLVTVSS VL: DIQLTQSPSFLSASVGDRVTITCRASQGISSYLAWYQQKPGKAPKLLIYAASTLQSGVPSRFSGSGSGTEFTLTISSLQPEDFATYCCQQLNSYPFTFGQGTKLEIK
5 | 0.000381 s⁻¹ | hab070e1 (antibody, V domains shown) VH: QVQLVESGGGVVQPGRSLRLSCAASGFTFSSYGMHWVRQAPGKGLEWVAVIWYETSNKFYVDSVKGRFTISRDNSKNTLYLQMNSLRAEDTAVYYCARYGASSGWYWYFDLWGRGTLVTVSS VL: DIQLTQSPSFLSASVGDRVTITCRASQGISSFLAWYQQKPGKAPKLLIYAASTLQSGVPSRFSGSGSGTEFTLTISSLQPEDFATYYCQQLNSYPFTFGQGTKLEIK
6 | 0.000185 s⁻¹ | hab070 (antibody, V domains shown) VH: QVQLVESGGGVVQPGRSLRLSCAASGFTFSSYGMHWVRQAPGKGLEWVAVIWYETSNKFYVDSVKGRFTISRDNSKNTLYLQMNSLRAEDTAVYYCARYGASSGWYWYFDLWGRGTLVTVSS VL: DIQLTQSPSFLSASVGDRVTITCRASQGISSFLAWYQQKPGKAPKLLIYAASTLQSGVPSRFSGSGSGTEFTLTISSLQPEDFATYCCQQLNSYPFTFGQGTKLEIK
